This is an account of results in patent US20070105925A1.

Data set [1] has as its target human recombinant (hr) ACE2 (human) (UniProt Q9BYF1). Nature of the data set: cell-based or functional assay.
Data set [2] relates to T1, 7-methoxycoumarin-Tyr-Val-Ala-Pro-(2,4-dinitrophenyl)Lys.
T1 sequence: YVAPK

Sequence of human recombinant (hr) ACE2 (human) (Q9BYF1 18-740 limits assumed): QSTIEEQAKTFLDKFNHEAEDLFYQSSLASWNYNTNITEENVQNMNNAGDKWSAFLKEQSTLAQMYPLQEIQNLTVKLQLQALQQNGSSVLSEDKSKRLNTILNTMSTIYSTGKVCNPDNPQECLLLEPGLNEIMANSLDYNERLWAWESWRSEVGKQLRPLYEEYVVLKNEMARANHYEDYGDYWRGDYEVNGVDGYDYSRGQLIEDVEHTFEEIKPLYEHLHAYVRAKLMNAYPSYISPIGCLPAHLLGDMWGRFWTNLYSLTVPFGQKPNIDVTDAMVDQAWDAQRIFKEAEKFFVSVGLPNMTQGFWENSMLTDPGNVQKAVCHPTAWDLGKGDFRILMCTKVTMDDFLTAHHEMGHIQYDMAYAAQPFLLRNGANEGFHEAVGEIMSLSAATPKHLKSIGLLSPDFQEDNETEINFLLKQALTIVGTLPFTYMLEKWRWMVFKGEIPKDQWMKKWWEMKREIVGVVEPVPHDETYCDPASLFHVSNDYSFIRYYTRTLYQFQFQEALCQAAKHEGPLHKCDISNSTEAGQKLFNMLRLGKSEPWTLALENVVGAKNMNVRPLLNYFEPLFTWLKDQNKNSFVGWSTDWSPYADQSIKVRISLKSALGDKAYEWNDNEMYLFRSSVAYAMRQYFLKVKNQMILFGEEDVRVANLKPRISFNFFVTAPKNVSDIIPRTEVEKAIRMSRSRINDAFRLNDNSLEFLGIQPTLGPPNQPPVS

With DX600 (peptide), in data set [1], the quenching of the fluorescence signal from cleavage of 7-Mca-YVADAPK(Dnp) by hrACE2 (enzyme inhibition) was 100 nmol/L. On to human recombinant (hr) ACE2, for which the “fluorescence from cleavage of the substrate, hACE2 spiked into kidney extract of an ACE2-knockout mouse” value in data set [2] is reported as “the fluorescence signal was recovered in a dose dependent manner, with a linear relationship (r=0.990, p<0.001) in the range of 0.4 to 50 ng ACE2 protein/well”.
